Values of other authors, collected in PMC8160820.

Molecular target: PEDF-R (Homo sapiens) (UniProt Q96AD5)
UniProt Q96AD5, sequence (Q96AD5 whole entry): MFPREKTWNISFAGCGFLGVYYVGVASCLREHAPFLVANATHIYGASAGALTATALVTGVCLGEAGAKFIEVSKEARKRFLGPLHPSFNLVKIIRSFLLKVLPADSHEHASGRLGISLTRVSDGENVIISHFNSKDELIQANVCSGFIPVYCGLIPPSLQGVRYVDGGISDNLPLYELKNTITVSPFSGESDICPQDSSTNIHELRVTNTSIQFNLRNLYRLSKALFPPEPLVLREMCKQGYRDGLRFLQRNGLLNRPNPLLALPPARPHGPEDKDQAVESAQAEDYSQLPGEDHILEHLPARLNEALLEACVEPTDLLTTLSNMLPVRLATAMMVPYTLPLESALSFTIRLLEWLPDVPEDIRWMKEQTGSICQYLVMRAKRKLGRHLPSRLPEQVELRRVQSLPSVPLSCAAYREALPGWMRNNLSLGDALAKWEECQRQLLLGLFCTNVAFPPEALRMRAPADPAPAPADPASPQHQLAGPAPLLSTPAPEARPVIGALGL

PEDF (from UniProt P36955)
Kd: 3 nM
